# Results taken from doi:10.1101/2022.11.07.515412.
# Where “and” joins values, the source holds several entries; their conditions need not be identical. Equal values may be shown once.
# Key:
# [1] = molecular target: vinculin D1 first subdomain (residues 1-257) (human) (UniProt P18206); experiment: native gel or EMSA
# [2] = molecular target: vinculin D1D2 (residues 1-484) (human) (UniProt P18206); experiment: native gel or EMSA
# [3] = molecular target: full-length human vinculin (HV) (human) (UniProt P18206); experiment: solid-phase binding assay
# [4] = molecular target: vinculin D1 first subdomain (residues 1-257) (human) (UniProt P18206); experiment: SEC-MALS
# [5] = molecular target: vinculin D1D4 (residues 1-834) (human) (UniProt P18206); experiment: SEC-MALS
# [6] = molecular target: vinculin D1D2 (residues 1-484) (human) (UniProt P18206); experiment: SEC-MALS
# [7] = molecular target: vinculin D1D2 (residues 1-484) (human) (UniProt P18206); experiment: SEC-MALS; remark: listed apart in the source
Substance,stoichiometry N [1],stoichiometry N [2],stoichiometry N (D1D2:AVBS1-3 molar ratio) [2],stoichiometry N ([2]; scale: AVBS1-3 per D1D2),EC50 [3] [nM],"stoichiometry N (molar ratio, printed as AVBS1-3:D1) [4]",stoichiometry N [5],stoichiometry N [6],stoichiometry N [7]
IpaA derivative containing VBS1-3 (AVBS1-3) (from UniProt P18010 1-633) (domain or fragment),1 D1:AVBS1-3,1 D1D2:AVBS1-3,3,2,6.1,1 and 2 and 3,1 D1D4:AVBS1-3,,
vinculin D1D2 (residues 1-484) (from UniProt P18206 1-484) (domain or fragment),,,,,,,,2 and 3,2
vinculin D1D4 (residues 1-834) (from UniProt P18206 1-834) (domain or fragment),,,,,,,2 and 3,,
IpaA derivative containing VBS1-2 (AVBS1-2) (from UniProt P18010 1-633) (domain or fragment),1 D1:AVBS1-2,1 D1D2:AVBS1-2,,,3.7,,,,1 D1D2:AVBS1-2
